A short description of this data set: soluble on expression in E. coli; label from the status in PepcDB or PDB records.
Take “MRFSNDHPFNQMRLKLTTELLLDLGSLKPEHIITPRIATDEELSLIHSYDYIQAIRRASHGILNLQEAKKYGLDGDDTLQFRRMHQHSARIVGGALNLADAIMDKSVKNGCHLGGGLHHSLPGRANGFCIYNDVAITIAYLIKHYNQRVLCIDTDAHHGDGTQWSFYTEDQALIYSIHETGKFLFPGSGHYTERGNEQGFGYTVNIPLEPYTEDSSYLEVFKQTIEPIIASFKPDIIVSVHGVDVHYLDPLTHMSCTLNTLYQIPYIIKSLADTYTNGKVMMFGGGGYNIWKVVPRAWSHVFLALIEAPPPLEHHHHHH”: the “soluble on expression in E. coli” value is recorded as “soluble”. Take “MRGEVKKIIEAIGDIFIGHEDVIRKVLAVALVNGNILFEDYPGLGKTLLAKAFAKILGLKFKRIQFTPDLLPADIIGTKVWKPEKGAFEVVKGPIFTNILLADEINRAPPKTQSALLEAMEERQVTIEGETFKLERPFFIIATQNPLELEGTYPLPEAQLDRFLVRLNIGYPRNEEDELEILKARLRWGKDDPTSDISPIISREDFIRMQEEVERGVIIHDDILRYIVRLVRRIREDERIEAGPSPRGGLALMKLAKANAFIEGRSYVIPDDVKYFAVEALAHRIVLKPEYSLERGIAEEIIREVLEEVPVPKDIRY”: the “soluble on expression in E. coli” value is on record as “soluble”. Consider “MRGNLKLFELKSGRGEKLMKNILIISSSPRKKGNSQILCEQFKKGAEAKGHQVKIVRIMEQNIGFCRACDGCMRNGGTCVLKDDMAEILKMFQKADVLVLATPVYFYGISAQMKTFIDRTYPIWQHLGKKEVYYIISAGLGEDIIERSLGDLNGFVEHLEEYKISGKIYAANVMDAGLVKNQSVFQKAYDMGYAI”, for which the “soluble on expression in E. coli” value is on record as “not soluble”. Take “MRGSHHHHHHGMASMTGGQQMGRDLYDDDDKDPMSVIKPDMKIKLRMEGAVNGHPFAIEGVGLGKPFEGKQSMDLKVKEGGPLPFAYDILTTVFCYGNRVFAKYPENIVDYFKQSFPEGYSWERSMNYEDGGICIATNDITLDGDCFIYEIRFDGVNFPANGPVMQKRTVKWEPSTEKLYVRDGVLKGDVNMALLLEGGGHYRCDFKTTYKAKKVVQLPDYHFVDHRIEIKSHDKDYNNVNLHEHAEAHSGLPRQAK”: the “soluble on expression in E. coli” value is recorded as “soluble”. With “MRGSHHHHHHGSASFLKKTMPFKTTIEGTVNGHYFKCTGKGEGNPFEGTQEMKIEVIEGGPLPFAFHILSTSCMYGSKTFIKYVSGIPDYFKQSFPEGFTWERTTTYEDGGFLTAHQDTSLDGDCLVYKVKILGNNFPADGPVMQNKAGRWEPGTEIVYEVDGVLRGQSLMALKCPGGRHLTCHLHTTYRSKKPASALKMPGFHFEDHRIEIMEEVEKGKCYKQYEAAVGRYCDAAPSKLGHN”, the “soluble on expression in E. coli” value is “soluble”. As for “MRGSHHHHHHGSDLGRKLLEAARAGQDDEVRILMANGADVNAADNTGTTPLHLAAYSGHLEIVEVLLKHGADVDASDVFGYTPLHLAAYWGHLEIVEVLLKNGADVNAMDSDGMTPLHLAAKWGYLEIVEVLLKHGADVNAQDKFGKTAFDISIDNGNEDLAEILQKLN”, the “soluble on expression in E. coli” value is “soluble”. “MRGSHHHHHHGSNSLSEANTKFMFDLFQQFRKSKENNIFYSPISITSALGMVLLGAKDNTAQQIKKVLHFDQVTENTTGKAATYHVDRSGNVHHQFQKLLTEFNKSTDAYELKIANKLFGEKTYLFLQEYLDAIKKFYQTSVESVDFANAPEESRKKINSWVESQTNEKIKNLIPEGNIGSNTTLVLVNAIYFKGQWEKKFNKEDTKEEKFWPNKNTYKSIQMMRQYTSFHFASLEDVQAKVLEIPYKGKDLSMIVLLPNEIDGLQKLEEKLTAEKLMEWTSLQNMRETRVDLHLPRFKVEESYDLKDTLRTMGMVDIFNGDADLSGMTGSRGLVLSGVLHKAFVEVTEEGAEAAAATAVVGFGSSPTSTNEEFHCNHPFLFFIRQNKTNSILFYGRFSSP”: the “soluble on expression in E. coli” value was “soluble”.

“MRGSHHHHHHGSPYNVMIVDDAAMMRLYIASFIKTLPDFKVVAQAANGQEALDKLAAQPNVDLILLDIEMPVMDGMEFLRHAKLKTRAKICMLSSVAVSGSPHAARARELGADGVVAKPSGTVSHDLEEKTGGELARTMRTLMAA”: the “soluble on expression in E. coli” value was “soluble”. In the case of “MRGSHHHHHHTDPALRADIIFYHPTFDTQWWIEALRKAIPQARVRAWKSGDNDSADYALVWHPPVEMLAGRDLKAVFALGAGVDSILSKLQAHPEMLNPSVPLFRLEDTGMGEQMQEYAVSQVLHWFRRFDDYRIQQNSSHWQPLPEYHREDFTIGILGAGVLGSKVAQSLQTWRFPLRCWSRTRKSWPGVQSFAGREELSAFLSQCRVLINLLPNTPETVGIINQQLLEKLPDGAYLLNLARGVHVVEDDLLAALDSGKVKGAMLDVFNREPLPPESPLWQHPRVTITPHVAAITRPAEAVEYISRTIAQLEKGERVCGQVDRARGYGLCGR”, the “soluble on expression in E. coli” value is listed as “soluble”.

These data come from the DeepSol protein solubility set.
